Results: US9616120B2, “Monoclonal antibodies directed to CD20” (VET THERAPEUTICS, INC., priority 2010, dated 2017)

T1: recombinant canine CD20 (Canis lupus familiaris, UniProt Q3C2E2, A201T/C77Y/G273E/L198V)
T1 construct: are transfected with an expression vector encoding the full-length canine CD20 protein; expressed in transfected cells; host or cells: CHO cells (CHO-DG44)
T1 sequence (Q3C2E2 1-297 C77Y/L198V/A201T/G273E): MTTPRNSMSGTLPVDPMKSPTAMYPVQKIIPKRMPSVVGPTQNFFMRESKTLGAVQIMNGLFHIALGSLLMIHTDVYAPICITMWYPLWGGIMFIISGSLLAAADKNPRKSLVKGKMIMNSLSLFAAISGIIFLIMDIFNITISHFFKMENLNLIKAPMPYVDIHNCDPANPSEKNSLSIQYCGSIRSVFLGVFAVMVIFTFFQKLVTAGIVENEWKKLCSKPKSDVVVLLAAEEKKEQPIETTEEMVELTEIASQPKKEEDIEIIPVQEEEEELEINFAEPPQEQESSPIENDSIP

T2: recombinant canine CD20 expressed in HEK cells (Canis lupus familiaris, UniProt Q3C2E2, A201T/C77Y/G273E/L198V)
T2 construct: expressed in transfected cells; host or cells: HEK cells
T2 sequence (Q3C2E2 1-297 C77Y/L198V/A201T/G273E): T1 sequence (Q3C2E2 1-297 C77Y/L198V/A201T/G273E)

T3: recombinant canine CD20 expressed in CHO cells (Canis lupus familiaris, UniProt Q3C2E2, A201T/C77Y/G273E/L198V)
T3 construct: are transfected with an expression vector encoding the full-length canine CD20 protein; expressed in transfected cells; host or cells: CHO cells (CHO-DG44)
T3 sequence (Q3C2E2 1-297 C77Y/L198V/A201T/G273E): T1 sequence (Q3C2E2 1-297 C77Y/L198V/A201T/G273E)

B1: CD20-2: anti-canine CD20 antibody; full length HC SEQ ID NO. 38, LC SEQ ID NO. 39 (antibody)
heavy: QVQLQQSRAELVRPGASVTLSCKPSGYTFTDYEVHWVKQTPVHGLEWIGAIDPETGGTADNQKFKGKAILTADKSSSTAYMELRSLTSEDSAVYYCTNFVDVWGTGTTVTVSSASTTAPSVFPLAPSCGSQSGSTVALACLVSGYFPEPVTVSWNSGSLTSGVHTFPSVLQSSGLYSLSSMVTVPSSRWPSETFTCNVAHPASKTKVDKPVPKRENGRVPRPPDCPKCPAPEMLGGPSVFIFPPKPKDTLLIARTPEVTCVVVDLDPEDPEVQISWFVDGKQMQTAKTQPREEQFNGTYRVVSVLPIGHQDWLKGKQFTCKVNNKALPSPIERTISKARGQAHQPSVYVLPPSREELSKNTVSLTCLIKDFFPPDIDVEWQSNGQQEPESKYRTTPPQLDEDGSYFLYSKLSVDKSRWQRGDTFICAVMHEALHNHYTQKSLSHSPGK
light: DVVMSQSPSSLAVSVGEKVTMSCKSSQSLLYSGNQKNYLAWYQQKPGQSPRLLIYWASTRESGVPDRFTGSGSGTDFTLTISSVKAEDLAVFYCQQYYNYPLTFGGGTHLTVLGQPKASPSVTLFPPSSEELGANKATLVCLISDFYPSGVTVAWKADGSPITQGVETTKPSKQSNNKYAASSYLSLTPDKWKSHSSFSCLVTHEGSTVEKKVAPAECS
modifications: canis familiaris/mus musculus
notes: anti-canine CD20 antibody; 39
B2: CD20-5: anti-canine CD20 antibody; full length HC SEQ ID NO. 40, LC SEQ ID NO. 41 (antibody)
heavy: QVQLKQSGAELVKPGASVKISCKASGYTFTDYYINWVKQRPGQGLEWIGKIGPRSGSIYYNEKFKGKATLTADKSSSTAYMQLRSLTSEDSAVYFCAVLKWGQGTLVTVSSASTTAPSVFPLAPSCGSQSGSTVALACLVSGYFPEPVTVSWNSGSLTSGVHTFPSVLQSSGLYSLSSMVTVPSSRWPSETFTCNVAHPASKTKVDKPVPKRENGRVPRPPDCPKCPAPEMLGGPSVFIFPPKPKDTLLIARTPEVTCVVVDLDPEDPEVQISWFVDGKQMQTAKTQPREEQFNGTYRVVSVLPIGHQDWLKGKQFTCKVNNKALPSPIERTISKARGQAHQPSVYVLPPSREELSKNTVSLTCLIKDFFPPDIDVEWQSNGQQEPESKYRTTPPQLDEDGSYFLYSKLSVDKSRWQRGDTFICAVMHEALHNHYTQKSLSHSPGK
light: DAVMTQIPLTLSVTIGQPASISCKSSQSLLHSDGKTYLNWLLQRPGQSPKRLIYLVSKLDSGVPDRFTGSGSGTDFTLKISRVEAEDLGVYYCWQGTHFPQTFGGGTHLTVLGQPKASPSVTLFPPSSEELGANKATLVCLISDFYPSGVTVAWKADGSPITQGVETTKPSKQSNNKYAASSYLSLTPDKWKSHSSFSCLVTHEGSTVEKKVAPAECS
modifications: canis familiaris/mus musculus
notes: anti-canine CD20 antibody; 41
B3: CD20-6: anti-canine CD20 antibody; full length HC SEQ ID NO. 42, LC SEQ ID NO. 43 (antibody)
heavy: EIQLQQSGAELVRPGASVTLSCKASGYTFTDYEMHWVKQTPVHGLEWIGGIDPETGGTAYNQKFKGKAILTADKSSSTVYMELRSLTSEDSAVYYCTRDYGTSGYWGQGTLVTVSSASTTAPSVFPLAPSCGSQSGSTVALACLVSGYFPEPVTVSWNSGSLTSGVHTFPSVLQSSGLYSLSSMVTVPSSRWPSETFTCNVAHPASKTKVDKPVPKRENGRVPRPPDCPKCPAPEMLGGPSVFIFPPKPKDTLLIARTPEVTCVVVDLDPEDPEVQISWFVDGKQMQTAKTQPREEQFNGTYRVVSVLPIGHQDWLKGKQFTCKVNNKALPSPIERTISKARGQAHQPSVYVLPPSREELSKNTVSLTCLIKDFFPPDIDVEWQSNGQQEPESKYRTTPPQLDEDGSYFLYSKLSVDKSRWQRGDTFICAVMHEALHNHYTQKSLSHSPGK
light: DVVVTQTPLSLPVSFGDQVSISCRSSQSLANSYGNTYLSWYLHKPGQSPQLLIYGISNRFSGVPDRFSGSGSGTDFTLKISRVEAEDLGVYFCSQSTHVPWTFGGGTHLTVLGQPKASPSVTLFPPSSEELGANKATLVCLISDFYPSGVTVAWKADGSPITQGVETTKPSKQSNNKYAASSYLSLTPDKWKSHSSFSCLVTHEGSTVEKKVAPAECS
modifications: canis familiaris/mus musculus
notes: anti-canine CD20 antibody; 43

Key:
canine B cells = details: Veterinary Journal, 2006, vol 171, 556; cited from earlier work
Control Cells = assay: FACS binding to control cells; details: antibody 2.5 μg/mL
Description: (§1) In the present example, the antibody variants (2.5 μg/mL) are incubated with mammalian cells expressing the recombinant feline CD20 or canine CD20 or control cells. The amount of bound antibody is assessed by detection with a fluorescent-labeled reporter antibody reagent. Several controls are utilized to determine the background fluorescence: (i) CD20 expressing cells are incubated with the conjugated secondary antibody with an isotype antibody, and (ii) Control cells are incubated with the anti-CD20 antibodies.

[1] = Tolerability of weekly dosing; type: in vivo; details: weekly dose over 4 weeks
[2] = system: B lymphocyte cell population; assay: Depletion of B cells in vivo (CD21 flow cytometry); design: species or system beagle dogs; details: three consecutive doses 2.4 mg/kg to 5.0 mg/kg
Description: Three beagle dogs receive three consecutive dosages of the antibody CD20-2 (VET305) ranging from […] to 5.0 mg/kg every 5 days. Blood samples drawn at several time points are centrifuged at 2000 RPM for 5 min. Plasma is removed for assay of the antibody levels. The pellet containing peripheral blood leukocytes and red blood cells is resuspended in a plasma equivalent volume of phosphate saline solution (Dulbecco's Phosphate-Buffered Saline, Mediatech, Cat No. 21-030-CM) for quantitation of lymphocyte populations by flow cytometry. A 0.1 mL volume of the cell preparation is distributed into micro-centrifuge tubes. Labeled monoclonal antibody with specificity for the canine lymphocyte surface marker CD21 is added to the vial to identify the B lymphocyte cell population. An additional sample is included with no reagents for determination of autofluorescence. Cells are incubated with the fluorescent antibody for 30 min. Red blood cell were then lyzed for 15 min using a lysis buffer (Red Blood Cell Lysis Buffer, Biolegend,Cat No. 420301) and then washed prior to analysis on a Becton Dickinson FACS instrument.

[3] = system: feline CD20 expressed in mammalian cells; assay: FACS binding to cells expressing recombinant feline CD20; details: for mean fluorescence, Feline CD20: antibody 2.5 μg/mL; for binding to feline CD20 (in words): mammalian cells
Description: as §1, with “The binding of the antibody variants of the present invention raised to canine CD20 can be assessed by FACS analysis for their binding to feline CD20 according to standard immunological techniques (see Veterinary Immunology and Immunopathology 2005, 106:179-196; Brousseau et al., Manual of Immunology Methods, CRC Press, 1998). In” for “In”

recombinant canine CD20 = biological target: T1, recombinant canine CD20; assay: Competition experiments (epitope mapping) on CHO cells expressing recombinant canine CD20; type: binding; details: for percentage of inhibition (PI), labeled antibody CD20-1 / percentage of inhibition (PI), labeled antibody CD20-2 / percentage of inhibition (PI), labeled antibody CD20-5: unlabelled competitor 25 μg/mL; for percentage of inhibition (PI), labeled antibody CD20-1: biotin-labeled CD20-1 2 μg/mL; for percentage of inhibition (PI), labeled antibody CD20-2: biotin-labeled CD20-2 2 μg/mL; for percentage of inhibition (PI), labeled antibody CD20-5: biotin-labeled CD20-5 2 μg/mL
Description: Competition experiments are performed using standard techniques. Briefly, biotinylated recombinant anti-canine CD20 antibodies are titrated on CHO cells expressing recombinant canine CD20. Cells are first incubated with an excess of unlabelled recombinant anti-canine CD20 antibody (25 μg/mL). Thereafter, cells are incubated with a biotin-labeled antibody at 2 μg/mL. After washing, cells are incubated with streptavidin- phycoerythrin and fluorescence is analyzed by flow cytometry. An irrelevant antibody is used as negative control for inhibition. Results are expressed as a ratio between fluorescence intensity of the cells pre-incubated with the unlabelled antibody and the fluorescence intensity obtained for each biotinylated antibody alone. The percentage of inhibition (PI) is calculated by the following formula: PI=[1−(Experimental-Background)/Biotinylated antibody alone−Background)]×100%.

[4] = biological target: T2, recombinant canine CD20 expressed in HEK cells; assay: FACS binding to cells expressing recombinant canine CD20; details: for mean fluorescence, Canine CD20: antibody 2.5 μg/mL
Description: as §1, with “The binding of the antibody variants of the present invention raised to canine CD20 can be assessed by FACS analysis for their binding to feline CD20 according to standard immunological techniques (see Veterinary Immunology and Immunopathology 2005, 106:179-196; Brousseau et al., Manual of Immunology Methods, CRC Press, 1998). In” for “In”

[5] = Half-life of recombinant anti-canine CD20 antibody in beagle dogs (plasma ELISA); type: in vivo
Description: The half-life of the recombinant anti-canine CD20 antibody are assessed. In this example, the half-life of antibody CD20-2 (VET305) is assessed by dosing beagle dogs intravenously. Blood is collected for analysis of CD20-2 in plasma samples harvested as whole blood treated with Ethylenediaminetetraacetic acid (EDTA) as the anticoagulant. An enzyme linked immunosorbant assay (ELISA) method is utilized to determine the plasma antibody concentrations. In this assay, a 96-well plate is coated with a rabbit polyclonal antibody raised to the variable domain of the antibody CD20-2. The antibody CD20-2 in standards or in samples is captured by the polyclonal antibody and is detected by an enzyme conjugated anti-dog secondary antibody. A non-linear regression fit of the standards is used to determine the recombinant antibody concentrations in plasma.

[6] = biological target: T3, recombinant canine CD20 expressed in CHO cells; assay: Binding affinity to recombinant canine CD20 expressed in CHO cells by FACS; details: CHO cells expressing canine CD20
Description: The antibody variants of the present invention are compared for their binding affinity to canine CD20. Binding affinity is assessed by measuring binding to the recombinant canine CD20 expressed in CHO cells by FACS analysis as described above.

[7] = multiple doses 2.0 to 5.0 mg/kg

Chain of feline CD20 expressed in mammalian cells (as listed by the source): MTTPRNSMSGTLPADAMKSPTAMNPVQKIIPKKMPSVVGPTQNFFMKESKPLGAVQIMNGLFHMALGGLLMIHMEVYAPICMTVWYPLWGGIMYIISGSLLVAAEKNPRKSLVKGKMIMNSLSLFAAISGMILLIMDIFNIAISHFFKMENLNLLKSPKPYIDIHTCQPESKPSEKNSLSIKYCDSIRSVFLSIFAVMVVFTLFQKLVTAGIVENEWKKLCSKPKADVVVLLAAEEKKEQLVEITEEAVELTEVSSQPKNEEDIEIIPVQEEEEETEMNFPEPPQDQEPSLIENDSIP

Molecule | reactivity with canine B cells (canine B cells) | mean fluorescence, Control Cells (Control Cells) [mean fluorescence units] | adverse effects on clinical and behavioral observations or body weights [1] | tolerability [1] | duration of depletion after the last dose [2] | B lymphocyte cell percentage after treatment ([2]; every 5 days) | mean fluorescence, Feline CD20 [3] [mean fluorescence units] | binding to feline CD20 (in words) [3] | percentage of inhibition (PI), labeled antibody CD20-1 (recombinant canine CD20) [%] | percentage of inhibition (PI), labeled antibody CD20-2 (recombinant canine CD20) [%] | percentage of inhibition (PI), labeled antibody CD20-5 (recombinant canine CD20) [%] | binding to recombinant canine CD20 (in words) [4] | mean fluorescence, Canine CD20 [4] [mean fluorescence units] | change of half-life values ([5]; consecutive administration) | elimination half life [5, 7] | plasma antibody concentrations (in words) [5, 7] | volume of distribution [5, 7] | plasma antibody concentrations (in words) ([5]; single dose 2.4 mg/kg) | Kd [6] [nM] | epitope of canine CD20 (in words) (recombinant canine CD20; conclusion from Table 7)
Rituximab: a monoclonal antibody to the human CD20 antigen | does not react with canine B cells |  |  |  |  |  |  |  |  |  |  |  |  |  |  |  |  |  |  | 
B1 |  | 49 | no adverse effects | well tolerated locally and systemically | at least 10 days | decrease in-B lymphocyte cell percentage | 2209 | bind feline CD20 | 0.90 | 124.33 | 3.69 | effective binding | 2340 | increase after consecutive administration | one week | increases overtime and persists at significant levels | approximating plasma volume | high plasma antibody concentrations are achieved in all animals |  | 
B2 |  | 215 |  |  |  |  | 2048 | bind feline CD20 | 107.07 | 6.47 | 85.88 | effective binding | 2769 |  |  |  |  |  | 1.2 | 
B3 |  | 4 |  |  |  |  | 60 |  | 6.03 | 1.41 | 5.99 | effective binding | 2107 |  |  |  |  |  |  | recognize different epitopes
